Experimental data as given in the supplement of paper PMC12042874.
± gives the uncertainty stated by the source.

Assay: amyloid nucleation score (Sup35N fusion, yeast selection) (log enrichment); library NNK3; higher = more nucleation; inactive = no reads after selection
Procedure, shortened: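 Sup35N fusions to peptides of 20 random codons were expressed in psi-negative yeast, induced 24 hours with 100 μM copper sulfate, and grown 7 days at 30°C on medium lacking adenine and uracil. Input and output plasmid inserts were sequenced by Illumina. The nucleation score is the DiMSum log enrichment of output over input reads, centred on the mode score of non-aggregating sequences. Sequences with under 100 input reads were excluded.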

Substance | amyloid nucleation score
MEGFSMIIRDAWKFTCVVEW | inactive
MESDCQRDHNFIRIKIKIGE | 1.65 ± 0.09
MEVKNSRLDSVAKYQSISFL | inactive
MFLGNVMTILIEMGFQKALT | 0.93 ± 0.17
MFLLMNKV | inactive
MFLQSGDFPM | inactive
MFRHVWVTNEVLSCGYIVTG | inactive
MFRVMSSVKLLS | -0.754 ± 0.96
MFSLNVYMGDTIVVHQGFTD | 2.77 ± 0.058
MFSPQSNRFSSFGNNSITGH | inactive
MFYVVLSYK | 0.071 ± 0.38
MGIQKTDRWRLWYYYWMREN | inactive
MGKETRVA | inactive
MGKTRLADLRVYRTVWLFSR | inactive
MGNRNDSNLTRCWESTLVVK | inactive
MGQAEGFLNGSSEQVEPTFA | inactive
MGVICWYLRACNPQPGSNCK | inactive
MGWALIGSQSPYVCHNMFVR | inactive
MHAMNVMAGVRLALVYVRSN | inactive
MHANLLGVQSVLLDRVEVMW | inactive
MHLEYGVFIDARATYML | 1.49 ± 0.12
MHLVYQDILSYIAWSRVPLR | inactive
MIHAFGFLMMCLVQSYLELF | inactive

Substance | amyloid nucleation score
MILLLGLDRKHSSGESKALI | inactive
MILNINVMYYFMYEGKIVMP | 2.7 ± 0.049
MINCISNMVISIGSKRTYPS | 2.5 ± 0.068
MIRYSVQ | 0.131 ± 0.24
MKFFVNLAYIFFRFFSLRLL | inactive
MKFRLTSSRQSDEAHFMWLT | 1.28 ± 0.085
MKFVPHYEGVYCL | inactive
MKGQLARSSDLSRLDVNCMG | inactive
MKTSNYMVRQCAGIPASTNR | inactive
MLARHCQQGGRDHPWLGSVL | inactive
MLLIVTSCYISAPNAVSPGW | -0.563 ± 0.84
MLNAIGCLSWSQFPESLLLG | inactive
MLNSLFAMNTILKW | 0.876 ± 0.083
MLVATL | inactive
MLWCLSVSIDFYGGDNRMLT | inactive
MLYFALNLC | inactive
MMADDVSLICGCGRQ | 1.01 ± 0.19
MMELQVAQLHTEGDRLKSRR | -0.787 ± 2.4
MMGTSWDWRYRYLRLRGEEC | inactive
MMMQLNGVHMV | inactive
MMVIRQYFMVRVEPVHVSSG | inactive
MMVMWD | inactive
MMWDL | inactive

Substance | amyloid nucleation score
MNEGQSYYKVVITPELLAAR | -0.545 ± 0.96
MNFSEH | inactive
MNGNGRFLVERRMLGSKKSV | inactive
MNTVGLIDLHSGAPLSINRT | inactive
MPMGGRYSAKAIVLVQKKDW | inactive
MPRSCSDYACAV | inactive
MPYSFIMTVTYSLQYTQWSL | -0.074 ± 0.51
MQYLIYPTWLVIELNC | 0.684 ± 0.13
MRCGRIDGDFGFAPRLRGTM | 0.902 ± 0.14
MRGFFCRIH | inactive
MRLMVWESLR | 1.6 ± 0.097
MRMNVTIRFVMFNTGLRMYG | inactive
MRRGEDCVV | inactive
MRRSMAVAMNRSVLYDEC | 0.581 ± 0.16
MRRVGIWYVRR | inactive
MRTMLVFVRGFKFFLPDLLI | inactive
MRTNTPIFLVLGKIS | inactive
MRVKGLIRWWETGCEKKSTA | inactive
MRYGKLDLSRVYLQCDRLGR | inactive
MRYINEKCVT | inactive
MSEKASSEVKINRDAGLGAF | inactive
MSFEYSPQGSILYGPSRNIY | inactive
MSFMTDLNPTFLFMLIG | inactive

Substance | amyloid nucleation score
MSGSRWRSTNFTCNNLWFDR | -1.07 ± 1.1
MSGVDYLTRLFVYTNESDAV | inactive
MSICFDPWTRPKCGVYCRCS | inactive
MSNMWKEYALALVVGLSFRL | inactive
MSRGGYWSKVR | inactive
MSSSSAFD | inactive
MSTVRHVRWRQGQGKMRGRK | inactive
MTAGEIDRLLYVS | inactive
MTCSQSECARVIVSRCHVWP | inactive
MTESNGGFPG | inactive
MTSITVDYDNLDYRIAMITW | inactive
MVCLDWVPSNVMTLGS | inactive
MVCWANKHWYSSHLLYDSVY | inactive
MVGFLDTFSRIAVRCSIDRW | -0.344 ± 1
MVIAPGEKTNNLSSAHRWSN | inactive
MVIGNVCFIIYGSFNEE | 2.33 ± 0.089
MVLKLNESSMIFKDTTYP | inactive
MVLPLSYKQSCFQLCKFLDN | inactive
MVMPGMFGSLRREWHSFFRM | inactive
MVMQIYIDDRPSMKVLYSEM | 0.485 ± 0.21
MVSNNGFIRSLVENPTPIQD | inactive
MWCMGNSVGSVWSRCTYMRY | inactive
MWGVCSFFAFPHIIFM | 1.33 ± 0.11

Substance | amyloid nucleation score
MWSHFFSQYSGWRFYTKSRF | inactive
MWVFKMRTGQYRASSRSLHR | 0.175 ± 0.37
MWVLSV | inactive
MWVQEYKTNNGYSLA | inactive
MYFFSHPPSNRRE | inactive
MYFSFLW | 0.18 ± 0.47
MYLNNFAWRVTVWNIFVHAL | 0.512 ± 0.16
MYPYAITVTGMFLLVPSCLD | inactive
MYQMSTVKRRRVGGSNDMCV | inactive
MYRLIVYT | inactive
MYWTNRHLQNIFWVKRNCGM | inactive
NAGHICFVVVTKWREFASVY | inactive
NAHCMVLMHRAKVWIFMINK | inactive
NAKPCSGPTMTGADEFPLCL | inactive
NALILAT | inactive
NARGVKSDEILN | inactive
NATSQLVVGAVQ | inactive
NCCQFPVDAS | inactive
NCDIPFFTRSEIVFLFVDFI | inactive
NCHAGPYEVYLVVGPELLLK | inactive
NCPSWGGFGIATSGQR | inactive
NCRRRKCVTGGGRS | 1.16 ± 0.17
NCRVMITVIYTICNVVFLSC | inactive

Substance | amyloid nucleation score
NCRYIVAPMKQLYMGIEMVL | inactive
NCYFIQGWSSLMYSKGFNKC | inactive
NDFCLIYYICGS | 0.743 ± 0.17
NDFSPVRWTVLDTDDPK | inactive
NDHSEGTCSIRERQTSRWML | inactive
NDLSDSMRVR | inactive
NDRIYCGGDYPTNH | inactive
NDYGDGVSHLMGTGTPTSLW | inactive
NECLVDTA | inactive
NEIFIRLLSNMKEPR | 1.31 ± 0.14
NENHGCYMGRVFQCGIYEYV | 1.44 ± 0.13
NEVMGFFNDQWRMIWWGYPR | inactive
NFCNLLFR | inactive
NFEIFSRVQWDLC | inactive
NFFMGLLSSRSMGLTWYWCM | inactive
NFIIWWVLDISVERIRINEV | inactive
NFITRWCGFSGSA | 0.608 ± 0.2
NFMGVYLVWNFIVVFKVHYV | inactive
NFMPNKYCNVELVFWGDLGI | 1.59 ± 0.12
NFRLYLLNCN | inactive
NFRPEKHINLMVCKSLPFV | 0.705 ± 0.21
NFRSSI | inactive
NFSIRCTWLVVNNAVDLRDN | 2.94 ± 0.049

Substance | amyloid nucleation score
NFVMLEKPDRTDLPGCTKQR | inactive
NGDGLVLYIRLLRLRRHVDT | inactive
NGFCSASICREDCEMWNMQS | inactive
NGGVLAGTMG | inactive
NGKVLM | inactive
NGNFSVRFSVKS | inactive
NGSHDRGVPAELSAFKG | inactive
NGSLREKSGSVCKRIL | inactive
NGSNFFDCSQFLCSFGGDVV | 2.45 ± 0.072
NGVMGRGLYTKSQRSYCDNN | inactive
NGYLACSPFS | inactive
NHGLLTKGMISAFRII | inactive
NHLGVRWVLSMNMTFPHHNL | 1.29 ± 0.089
NHYATFGCSVTFAIVNWSRF | 1.86 ± 0.057
NHYCDFAVWSTFNLTLHHSL | inactive
NICCHISKSRPYQVYFSLQL | inactive
NICLKNSVS | inactive
NIIFRTW | inactive
NIISNDLSEASIYNGFVCNR | inactive
NIMVDHS | -0.476 ± 1.4
NIMVVYPFFYGFKHNWLESI | inactive
NINYTYLESVLIMGYMFREL | 2.21 ± 0.095
